This assay concerns the target T1, recombinant murine IL-7 receptor alpha (mouse, UniProt P16872 21-239).
T1 construct: interleukin-7 receptor subunit alpha, mouse; Probably the extracellular domain (catalogue product); The SPR methods say only 'recombinant murine IL7Rα' without a supplier; also called IL7Rα; mIL-7Rα; source: bought: Sino Biological; not shown: polyhistidine, C-terminal, kept
T1 sequence (looked up): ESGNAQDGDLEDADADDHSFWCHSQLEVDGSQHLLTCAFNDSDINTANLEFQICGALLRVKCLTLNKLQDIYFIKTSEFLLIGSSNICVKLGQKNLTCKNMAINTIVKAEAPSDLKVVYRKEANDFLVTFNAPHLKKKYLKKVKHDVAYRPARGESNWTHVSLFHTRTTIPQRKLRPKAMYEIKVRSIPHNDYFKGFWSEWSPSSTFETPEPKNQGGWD
Put plainly: SPR; murine IL7Rα immobilised on a CM5 chip by amine coupling (Rmax below 30); threefold serial dilutions of WT-IL7 and Neo-7 variants in HBS-EP+ at 50 µL/min, association 180 s, dissociation 600 s; Biacore T200. The settings on record: both partners purified. For orientation: SPR reads the build-up and loss of mass on a sensor chip optically.

As a reminder, the Kd is the concentration at which binding is half-saturated. As a reminder, the koff is the rate constant with which the complex falls apart. For orientation: kon means the second-order rate constant of association.

B1: recombinant WT-IL7, E. coli expressed and refolded (ligand, human, UniProt P13232 26-177, looked up)
chain: DCDIEGKDGKQYESVLMVSIDQLLDSMKEIGSNCLNNEFNFFKRHICDANKEGMFLFRAARKLRQFLKMNSTGDFDLHLLKVSEGTTILLNCTGQVKGRKPAALGEAQPTKSLEENKSLKEQKKLNDLCFLKRLLQEIKTCWNKILMGTKEH
notes: interleukin-7, human, wild type; The methods say only that a similar procedure as for Neo-7 was used
As for B1, the Kd is 13.4 nM, the koff is 0.0784 s⁻¹ and the kon is 5.86e+06 M⁻¹ s⁻¹.

The values are drawn from paper PMC12810954, “Targeted computational design of an interleukin-7 superkine with enhanced folding efficiency and immunotherapeutic efficacy” (eLife, 2026).
